Measurements taken from the supplement of paper PMC10065799, “High-throughput profiling of sequence recognition by tyrosine kinases and SH2 domains using bacterial peptide display” (eLife, 2023).

Assays:
[1] = target: FGFR3 (UniProt P22607); assay: phosphorylation enrichment, bacterial display (enrichment ratio); higher = better substrate or ligand; peptides without Tyr show the background
[2] = tested on: c-Abl (mouse); assay: as above
[3] = tested on: Fer (mouse); assay: as above
[4] = target: Fes (UniProt P07332); assay: as above
[5] = target: Jak2 (UniProt O60674); assay: as above
Jak2, sequence (O60674 whole entry, looked up): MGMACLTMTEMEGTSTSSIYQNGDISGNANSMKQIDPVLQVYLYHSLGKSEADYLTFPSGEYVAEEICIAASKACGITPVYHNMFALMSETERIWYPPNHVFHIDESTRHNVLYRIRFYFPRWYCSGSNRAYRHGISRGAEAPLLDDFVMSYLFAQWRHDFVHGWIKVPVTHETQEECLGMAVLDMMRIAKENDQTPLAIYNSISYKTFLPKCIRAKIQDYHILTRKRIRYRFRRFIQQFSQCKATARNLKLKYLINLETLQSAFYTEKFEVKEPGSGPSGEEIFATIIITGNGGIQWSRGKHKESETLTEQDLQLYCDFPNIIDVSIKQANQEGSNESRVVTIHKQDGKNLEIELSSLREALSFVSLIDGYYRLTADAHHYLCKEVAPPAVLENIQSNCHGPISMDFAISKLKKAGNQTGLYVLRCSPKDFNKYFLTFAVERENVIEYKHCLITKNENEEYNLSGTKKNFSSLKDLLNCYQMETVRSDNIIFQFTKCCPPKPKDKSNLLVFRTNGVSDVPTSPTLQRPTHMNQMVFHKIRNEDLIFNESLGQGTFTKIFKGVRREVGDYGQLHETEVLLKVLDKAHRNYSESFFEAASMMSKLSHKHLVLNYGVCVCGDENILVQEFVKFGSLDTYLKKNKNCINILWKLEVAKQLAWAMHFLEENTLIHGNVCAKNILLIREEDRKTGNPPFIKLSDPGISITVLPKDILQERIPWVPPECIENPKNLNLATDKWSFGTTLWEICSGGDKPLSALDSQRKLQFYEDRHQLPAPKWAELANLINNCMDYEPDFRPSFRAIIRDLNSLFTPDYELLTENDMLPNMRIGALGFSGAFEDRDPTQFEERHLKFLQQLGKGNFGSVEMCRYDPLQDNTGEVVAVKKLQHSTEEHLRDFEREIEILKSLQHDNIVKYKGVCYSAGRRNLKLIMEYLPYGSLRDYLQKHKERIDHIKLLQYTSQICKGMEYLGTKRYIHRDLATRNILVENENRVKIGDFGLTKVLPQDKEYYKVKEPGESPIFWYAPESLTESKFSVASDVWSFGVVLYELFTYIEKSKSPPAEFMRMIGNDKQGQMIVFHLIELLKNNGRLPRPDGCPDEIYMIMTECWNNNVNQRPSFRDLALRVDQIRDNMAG

[6] = tested on: c-Src; assay: as above
[7] = target: MERTK (UniProt Q12866); assay: as above
MERTK, sequence (Q12866 whole entry, looked up): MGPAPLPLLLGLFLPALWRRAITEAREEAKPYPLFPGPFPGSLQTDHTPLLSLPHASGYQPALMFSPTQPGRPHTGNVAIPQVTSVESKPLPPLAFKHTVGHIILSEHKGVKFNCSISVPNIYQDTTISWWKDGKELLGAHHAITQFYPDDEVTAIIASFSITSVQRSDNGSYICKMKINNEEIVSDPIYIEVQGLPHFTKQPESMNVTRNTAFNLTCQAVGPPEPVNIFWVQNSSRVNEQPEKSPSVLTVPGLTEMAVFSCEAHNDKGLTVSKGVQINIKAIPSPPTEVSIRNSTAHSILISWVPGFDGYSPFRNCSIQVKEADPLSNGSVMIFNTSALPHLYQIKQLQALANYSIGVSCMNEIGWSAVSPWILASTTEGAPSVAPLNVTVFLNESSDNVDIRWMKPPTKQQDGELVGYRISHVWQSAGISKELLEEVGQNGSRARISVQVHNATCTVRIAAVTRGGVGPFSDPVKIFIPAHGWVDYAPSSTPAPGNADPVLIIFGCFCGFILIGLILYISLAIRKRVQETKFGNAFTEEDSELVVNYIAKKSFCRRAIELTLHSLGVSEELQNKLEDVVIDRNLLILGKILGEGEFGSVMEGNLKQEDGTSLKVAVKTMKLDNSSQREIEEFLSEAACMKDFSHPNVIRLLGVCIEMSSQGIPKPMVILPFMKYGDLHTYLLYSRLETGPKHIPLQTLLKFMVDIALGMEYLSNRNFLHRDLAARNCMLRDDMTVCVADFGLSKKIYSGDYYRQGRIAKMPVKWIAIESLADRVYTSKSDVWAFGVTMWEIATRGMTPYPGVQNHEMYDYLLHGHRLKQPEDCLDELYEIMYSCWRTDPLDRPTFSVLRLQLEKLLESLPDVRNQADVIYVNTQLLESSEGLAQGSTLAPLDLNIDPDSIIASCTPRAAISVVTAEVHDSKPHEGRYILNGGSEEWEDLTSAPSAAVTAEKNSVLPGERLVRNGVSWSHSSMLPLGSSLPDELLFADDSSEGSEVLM

[8] = target: EPHB2 (UniProt P29323); assay: as above
[9] = tested on: AncSZ; assay: as above
[10] = target: Hck (UniProt P08631); assay: as above
Hck, sequence (P08631 whole entry, looked up): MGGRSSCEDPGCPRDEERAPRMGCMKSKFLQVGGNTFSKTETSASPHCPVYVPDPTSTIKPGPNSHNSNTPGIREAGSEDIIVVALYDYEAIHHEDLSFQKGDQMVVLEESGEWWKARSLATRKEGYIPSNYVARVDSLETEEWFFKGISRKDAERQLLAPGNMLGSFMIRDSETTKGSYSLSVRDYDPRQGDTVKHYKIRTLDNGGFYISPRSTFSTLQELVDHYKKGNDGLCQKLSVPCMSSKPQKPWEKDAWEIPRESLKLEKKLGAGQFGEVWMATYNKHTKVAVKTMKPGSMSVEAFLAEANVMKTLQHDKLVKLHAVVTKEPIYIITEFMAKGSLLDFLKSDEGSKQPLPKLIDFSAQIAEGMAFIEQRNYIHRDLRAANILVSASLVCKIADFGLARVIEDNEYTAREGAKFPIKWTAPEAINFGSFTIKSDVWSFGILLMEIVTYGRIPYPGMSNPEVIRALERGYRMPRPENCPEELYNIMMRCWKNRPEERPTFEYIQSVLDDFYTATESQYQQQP

[11] = target: EPHB1 (UniProt P54762); assay: as above
EPHB1, sequence (P54762 whole entry, looked up): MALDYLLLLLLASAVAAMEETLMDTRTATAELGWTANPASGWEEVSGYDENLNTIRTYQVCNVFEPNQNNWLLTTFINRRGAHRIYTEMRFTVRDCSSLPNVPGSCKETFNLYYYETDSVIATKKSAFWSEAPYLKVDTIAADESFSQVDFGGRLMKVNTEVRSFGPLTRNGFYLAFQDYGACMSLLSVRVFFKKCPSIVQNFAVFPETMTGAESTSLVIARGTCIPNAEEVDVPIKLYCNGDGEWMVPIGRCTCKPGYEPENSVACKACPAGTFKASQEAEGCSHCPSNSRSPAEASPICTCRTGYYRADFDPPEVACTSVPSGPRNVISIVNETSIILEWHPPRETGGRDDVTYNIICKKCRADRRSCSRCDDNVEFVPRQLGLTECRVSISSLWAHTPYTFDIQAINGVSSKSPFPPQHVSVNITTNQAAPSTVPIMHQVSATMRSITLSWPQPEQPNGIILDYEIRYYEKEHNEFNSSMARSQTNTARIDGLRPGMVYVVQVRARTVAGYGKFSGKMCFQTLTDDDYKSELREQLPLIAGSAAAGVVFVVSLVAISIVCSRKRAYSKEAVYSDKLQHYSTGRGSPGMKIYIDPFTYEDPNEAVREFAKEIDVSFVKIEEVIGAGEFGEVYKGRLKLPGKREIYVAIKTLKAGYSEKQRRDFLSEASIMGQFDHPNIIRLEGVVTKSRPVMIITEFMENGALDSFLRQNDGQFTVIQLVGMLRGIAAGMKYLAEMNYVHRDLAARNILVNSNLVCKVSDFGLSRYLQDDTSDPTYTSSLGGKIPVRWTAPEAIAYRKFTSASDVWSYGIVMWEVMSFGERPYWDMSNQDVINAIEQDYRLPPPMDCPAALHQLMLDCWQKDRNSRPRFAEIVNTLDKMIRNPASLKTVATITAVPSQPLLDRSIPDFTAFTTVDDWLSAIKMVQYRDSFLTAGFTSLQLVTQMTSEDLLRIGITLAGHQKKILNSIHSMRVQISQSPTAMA

[12] = target: Fyn (UniProt P06241); assay: as above
Fyn, sequence (P06241 whole entry, looked up): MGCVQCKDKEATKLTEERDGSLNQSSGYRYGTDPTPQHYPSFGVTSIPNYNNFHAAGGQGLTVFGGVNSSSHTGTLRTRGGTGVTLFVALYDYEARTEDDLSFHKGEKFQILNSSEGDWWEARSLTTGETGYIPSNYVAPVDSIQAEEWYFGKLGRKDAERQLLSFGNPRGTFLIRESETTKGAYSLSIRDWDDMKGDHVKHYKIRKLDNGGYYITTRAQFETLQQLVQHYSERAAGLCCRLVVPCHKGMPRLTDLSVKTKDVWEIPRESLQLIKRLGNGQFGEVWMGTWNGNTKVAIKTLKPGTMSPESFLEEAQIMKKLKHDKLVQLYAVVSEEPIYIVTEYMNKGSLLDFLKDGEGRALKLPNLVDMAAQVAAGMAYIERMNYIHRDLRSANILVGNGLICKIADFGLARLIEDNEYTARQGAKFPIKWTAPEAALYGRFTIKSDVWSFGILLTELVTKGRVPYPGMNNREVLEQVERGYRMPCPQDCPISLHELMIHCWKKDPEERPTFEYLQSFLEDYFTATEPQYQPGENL

[13] = target: FGFR1 (UniProt P11362); assay: as above
FGFR1, sequence (P11362 whole entry, looked up): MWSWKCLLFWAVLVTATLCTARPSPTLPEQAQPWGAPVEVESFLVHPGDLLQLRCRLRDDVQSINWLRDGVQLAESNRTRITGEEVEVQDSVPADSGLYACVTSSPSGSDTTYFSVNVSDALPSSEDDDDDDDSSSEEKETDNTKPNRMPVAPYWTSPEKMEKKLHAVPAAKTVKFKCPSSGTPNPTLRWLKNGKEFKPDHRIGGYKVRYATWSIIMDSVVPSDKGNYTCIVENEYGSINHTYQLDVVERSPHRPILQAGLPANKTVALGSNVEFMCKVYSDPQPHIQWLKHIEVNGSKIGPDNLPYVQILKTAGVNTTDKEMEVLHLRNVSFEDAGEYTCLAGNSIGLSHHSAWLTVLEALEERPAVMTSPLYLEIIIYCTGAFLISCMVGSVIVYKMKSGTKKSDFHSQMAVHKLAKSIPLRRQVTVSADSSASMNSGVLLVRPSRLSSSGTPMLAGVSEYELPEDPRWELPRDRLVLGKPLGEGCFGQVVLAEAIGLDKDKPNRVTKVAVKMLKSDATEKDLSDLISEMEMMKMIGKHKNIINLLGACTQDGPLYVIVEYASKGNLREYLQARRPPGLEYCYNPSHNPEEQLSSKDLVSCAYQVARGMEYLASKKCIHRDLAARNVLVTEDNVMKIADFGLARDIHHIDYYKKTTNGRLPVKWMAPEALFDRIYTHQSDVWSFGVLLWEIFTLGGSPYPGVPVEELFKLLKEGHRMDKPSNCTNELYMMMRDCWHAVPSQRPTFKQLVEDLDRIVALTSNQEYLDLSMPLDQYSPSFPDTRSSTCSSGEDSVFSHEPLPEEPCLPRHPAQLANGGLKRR

[14] = target: Grb2 SH2 (UniProt P62993); assay: SH2 binding enrichment of the phosphorylated peptide, bacterial display (enrichment ratio); higher = better substrate or ligand; peptides without Tyr show the background
[15] = target: SHP2-C SH2; assay: as above
[16] = target: c-Src SH2; assay: as above
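Wherever SH2 binding enrichment of the phosphorylated peptide, bacterial display is given: peptide library displayed on the E. coli surface as eCPX fusions, selected cells deep-sequenced, score is each peptide's frequency after selection divided by its frequency in the input.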
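Wherever phosphorylation enrichment, bacterial display is given: 11-residue human phosphosite peptides and single-mutation variants displayed on the E. coli surface, counted by deep sequencing, each peptide's frequency after selection divided by its frequency in the unselected input library; frequency after pTyr selection over input frequency; kinase dosed for 20-30% of maximal phosphorylation in three min.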

Sequence	SH2 binding enrichment [14]	SH2 binding enrichment [15]	SH2 binding enrichment [16]	phosphorylation enrichment [1]	phosphorylation enrichment [2]	phosphorylation enrichment [3]	phosphorylation enrichment [4]	phosphorylation enrichment [5]	phosphorylation enrichment [6]	phosphorylation enrichment [7]	phosphorylation enrichment [8]	phosphorylation enrichment [9]	phosphorylation enrichment [10]	phosphorylation enrichment [11]	phosphorylation enrichment [12]	phosphorylation enrichment [13]
VHNLDYYKKTT [FGFR3_Y647]	0.796	0.556	0.389	0.771	0.443	0.394	0.624	0.469	0.371	0.414	0.474	0.527	0.408	0.428	0.39	0.369
VIKDKYPKVRY [APTX_Y209_A212V]	1.19	1.16	1.05	0.449	0.577	0.402	0.667	0.693	0.487	0.35	0.437	0.448	0.466	0.414	0.365	0.441
VKFGAYINDFK [GLB1_Y488_N484K_YF]	4.55	1.06	1.3	0.879	0.737	0.406	1.02	1.05	0.468	0.412	0.572	0.839	0.523	0.596	0.431	0.466
VKGGAYYPVTV [MCCC2_Y145]	0.955	0.8	0.715	3.75	0.609	0.819	0.822	2.65	0.445	4.41	0.551	0.582	0.607	0.331	0.423	5.39
VLTSKYLGGGG [HBA1_Y141_R142L]	0.824	0.695	0.456	0.308	0.375	0.264	0.461	0.444	0.334	0.347	0.326	0.382	0.32	0.292	0.275	0.448
VMSGPYNLKAL [IL1B_Y140_E141N]	0.886	0.622	0.545	0.556	0.643	0.508	0.765	0.959	0.758	0.507	0.475	0.888	0.473	0.534	0.596	0.569
VNFGAYINNFK [GLB1_Y488_D491N_YF]	0.834	0.803	0.589	0.689	0.535	0.579	0.912	0.662	0.391	0.362	0.635	1.03	0.523	0.566	0.463	0.535
VNLVLYLSIAK [FBXO15_Y496]	0.829	0.388	0.426	0.867	1.25	0.443	1.73	1.28	0.512	0.572	0.628	1.13	0.527	0.438	0.462	0.581
VPANRYDLLCL [FARSB_Y72]	0.831	0.907	3.03	0.725	0.773	0.486	0.985	0.873	0.487	0.514	0.654	0.808	0.458	0.58	0.469	0.493
VRKRSYSAGNA [KANK1_Y324]	0.665	0.398	0.343	0.492	0.564	0.457	0.621	0.441	0.519	0.444	0.436	0.615	0.48	0.495	0.441	0.396
VTAVAYRLAEQ [HK1_Y461]	0.828	0.604	0.782	0.584	0.509	0.446	0.792	0.543	0.385	0.349	0.424	0.633	0.475	0.47	0.473	0.495
VVCKNYAEAKD [ALB_Y343_D338V]	0.852	0.807	0.647	0.693	0.785	0.5	1.1	0.875	0.477	0.457	0.581	0.932	0.519	0.515	0.512	0.482
VVGMLYVGRLP [LAMA2_Y2886_G2889R]	0.926	0.987	0.561	0.602	0.654	0.552	1.04	0.98	0.422	0.426	0.643	1.22	0.455	0.481	0.442	0.647
VVLEDYLDIKH [CLCNKB_Y138_N143H]	0.76	0.575	0.54	1.05	0.716	0.506	1.3	0.959	0.458	0.506	0.66	1.25	0.534	0.782	0.419	1.24
VVQGLYKSMRK [KBTBD2_Y250_P254R]	0.68	0.652	0.462	0.358	0.519	0.372	0.464	0.522	0.391	0.482	0.432	0.628	0.351	0.397	0.421	0.403
VVTGLYEKPSL [KIR3DS1_Y221]	0.722	0.461	0.859	0.537	17.3	13.2	0.66	0.623	1.05	9.59	7.7	1.36	6.03	4.21	2.3	0.456
VWALTYCDLHK [KCNH2_Y827_R823W]	0.884	0.791	0.655	0.967	0.809	0.594	1.32	1.49	1.2	0.507	0.76	1.28	0.632	1.75	0.605	0.823
VYSATYHPDHW [EFCAB12_Y544_P541S]	0.97	0.788	0.634	1.18	2.06	4.14	1.24	1.05	5.17	10.3	1.13	1.02	5.4	1.06	6.37	1.33
VYSTDYYRVGG [NTRK2_Y706]	0.92	0.687	0.719	11.8	1.49	1.22	0.902	10	4.67	11	7.13	2.94	4.61	8.68	5.13	15.3
WASGIYYVPKG [APBB1IP_Y340_R335W]	1.21	0.959	0.883	7.15	31.1	5.91	1.05	8.67	6.92	11.5	17	3.2	10.1	15.3	10	8.05
WCSNDYLGMSR [ALAS2_Y199]	0.895	0.773	0.642	1.25	0.6	0.5	0.845	3.41	0.843	0.398	0.752	1.85	0.781	0.959	0.551	1.57

Further lines, with some results ahead:

SH2 binding enrichment [14]	SH2 binding enrichment [15]	SH2 binding enrichment [16]	Sequence	phosphorylation enrichment [1]	phosphorylation enrichment [2]	phosphorylation enrichment [3]	phosphorylation enrichment [4]	phosphorylation enrichment [5]	phosphorylation enrichment [6]	phosphorylation enrichment [7]	phosphorylation enrichment [8]	phosphorylation enrichment [9]	phosphorylation enrichment [10]	phosphorylation enrichment [11]	phosphorylation enrichment [12]	phosphorylation enrichment [13]
0.774	0.499	0.42	VGNAAYQAGPL [STK36_Y1181]	0.472	0.531	0.392	0.556	0.592	0.429	0.386	0.437	0.553	0.378	0.358	0.458	0.407
0.736	0.548	0.708	VHVEVYDPPSP	0.826	0.949	0.758	1.3	1.27	0.719	0.775	0.572	1.65	0.833	0.749	0.794	0.672
0.713	0.68	0.535	VIEQSYNETWL [SLC2A4_Y56]	0.827	0.803	1.25	1.23	1.1	0.572	0.436	0.645	1.17	0.512	0.567	0.558	0.621
0.699	0.642	0.601	VKGGAYFPVTV [MCCC2_Y145_YF]	0.602	0.522	0.419	0.601	0.807	0.386	0.692	0.444	0.703	0.431	0.372	0.396	0.713
0.862	0.607	0.494	VKPENYRRQDI [VHL_Y175_L178Q]	0.4	0.465	0.304	0.504	0.469	0.365	0.379	0.367	0.475	0.309	0.274	0.344	0.343
0.885	1.11	0.726	VPDANYTSDEE [STK33_Y439]	0.796	2.42	0.658	1.38	1.19	0.586	0.621	0.801	1.54	0.61	0.649	0.701	0.699
1.11	0.694	0.555	VQSASYLNACL [MCM3AP_Y864]	0.551	0.645	0.47	0.813	0.674	0.495	0.46	0.473	0.759	0.384	0.418	0.419	0.381
1	0.893	0.695	VRSNHYAPEED [TJP1_Y1346_D1347A]	0.605	0.728	0.469	0.984	0.955	0.434	0.462	0.611	0.941	0.498	0.529	0.473	0.426
0.79	0.575	0.339	VSSIPYGQPKQ [NEU1_Y251_G248S]	0.41	0.464	0.324	0.605	0.844	0.447	0.425	0.345	0.549	0.493	0.555	0.338	0.39
0.755	4.29	0.757	VYLGAYDHFLP [SLC22A5_Y486_R488H]	1.62	2.69	7.24	1.25	1.39	6.2	9.45	7.25	2.28	5.47	4.38	6.16	1.6
1.64	1.81	2.61	VYYGSYSRPYG [NKAP_Y104]	2.01	8.1	0.835	0.756	2.87	7.11	6.16	2.66	1.19	8.09	1.7	9.54	2.77
0.971	0.758	0.478	WAKPEYTGGFK	0.462	0.743	0.332	0.732	0.574	0.417	0.397	0.468	0.544	0.364	0.438	0.411	0.48
